Results: PMC2586972 (Structure (London, England : 1993), 2008)

Legend:
[1] = target: T1, N-terminally truncated Gα13(Q226L), GDP-bound (mouse, UniProt P27601 41-377, Q226L); assay: crystal structure
T1 sequence (looked up): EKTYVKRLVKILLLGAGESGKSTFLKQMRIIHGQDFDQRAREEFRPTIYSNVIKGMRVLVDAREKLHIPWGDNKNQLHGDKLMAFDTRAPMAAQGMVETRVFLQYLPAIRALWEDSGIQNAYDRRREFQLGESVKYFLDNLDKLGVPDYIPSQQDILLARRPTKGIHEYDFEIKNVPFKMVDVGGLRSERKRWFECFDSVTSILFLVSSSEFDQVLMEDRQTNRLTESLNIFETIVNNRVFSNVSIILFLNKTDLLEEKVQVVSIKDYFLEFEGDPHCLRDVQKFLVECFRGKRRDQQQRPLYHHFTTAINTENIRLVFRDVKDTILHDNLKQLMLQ

Gα13 = target: T2, Gα13 (Mus musculus, UniProt P27601); assay: ITC
T2 chain: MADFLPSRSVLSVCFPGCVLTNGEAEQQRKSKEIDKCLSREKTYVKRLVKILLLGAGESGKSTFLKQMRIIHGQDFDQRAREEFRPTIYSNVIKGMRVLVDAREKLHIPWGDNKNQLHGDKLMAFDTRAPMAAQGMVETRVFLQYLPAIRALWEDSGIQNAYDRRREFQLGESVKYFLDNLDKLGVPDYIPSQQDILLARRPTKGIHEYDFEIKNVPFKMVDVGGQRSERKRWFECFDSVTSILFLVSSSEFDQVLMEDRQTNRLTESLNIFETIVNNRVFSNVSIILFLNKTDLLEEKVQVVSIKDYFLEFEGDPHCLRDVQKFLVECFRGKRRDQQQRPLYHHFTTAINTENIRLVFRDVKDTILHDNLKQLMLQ

Row | binding result [1] | Kd (Gα13) | Binder
1 | binds | – | rgRGS domain of PDZRhoGEF/GTRAP48 (residues 307–508) (domain or fragment, rat, UniProt Q9ES67 307-508, looked up) LIIGPEEDYDPGYFNNESDIIFQDLEKLKSHPAYLVVFLRYILSQADPGPLLFYLCSEVYQQTNPKDSRSLGKDIWNIFLEKNAPLRVKIPEMLQAEIDLRLRNNEDPRNVLCEAQEAVMLEIQEQINDYRSKRTLGLGSLYGENDLLGLDGDPLRERQMAEKQLAALGDILSKYEEDRSAPMDFAVNTFMSHAGIRLRESR
2 | – | ~500 nM | PDZRhoGEF rgRGS (protein, GDP·AlF-bound Gα13) ESDIIFQDLEKLKSRPAHLGVFLRYIFSQADPSPLLFYLCAEVYQQASPKDSRSLGKDIWNIFLEKNAPLRVKIPEMLQAEIDSRLRNSEDARGVLCEAQEAAMPEIQEQIHDYRTKRTLGLGSLYGENDLLDLDGDPLRERQVAEKQLAALGDILSKYEEDRSAPMDFALNTYMSHAGIR
3 | – | ~300 nM | PDZRhoGEF rgRGS (protein, GTPγS-bound Gα13) ESDIIFQDLEKLKSRPAHLGVFLRYIFSQADPSPLLFYLCAEVYQQASPKDSRSLGKDIWNIFLEKNAPLRVKIPEMLQAEIDSRLRNSEDARGVLCEAQEAAMPEIQEQIHDYRTKRTLGLGSLYGENDLLDLDGDPLRERQVAEKQLAALGDILSKYEEDRSAPMDFALNTYMSHAGIR
